Experimental data from the supplement of paper PMC10567573.

B1: ZC3H15 (parent)
chain: RKADFKAGKALVISGREVFEFRPE
B2: COX4I1 (parent)
chain: FDKEWVAKQTKRMLDMKVNPIQGL

Variants of: B1
Assay: protein stability index of a GFP-peptide fusion (GPS, HEK-293T) (PSI 1-6); higher = more stable
Conditions: c terminus: a fixed tail appended
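Note: lentivirally expressed fusions sorted by FACS into six bins by GFP to DsRed ratio, PSI derived from sequencing read proportions per bin multiplied by bin number.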

Variant | protein stability index
D4E | 2.64
D4Y | 2.12
D4T | 1.98
D4I | 2.27
D4F | 1.98
D4H | 2.15
D4K | 2.53
D4A | 2.36
D4R | 2.55
D4C | 1.79
D4M | 2.54
D4L | 1.91
D4W | 1.73
D4N | 2.03
D4S | 2.55
D4Q | 2.73
D4G | 2.42
D4V | 2.2
D4P | 2.36
G15T | 2.93
G15D | 3.38
G15L | 1.81
G15M | 2.04
G15S | 3.18
G15C | 2.07

Variant | protein stability index
G15Q | 2.92
G15R | 2.73
G15W | 1.37
G15N | 3.4
G15A | 2.64
G15Y | 1.85
G15H | 2.2
G15E | 3.65
G15P | 3.37
G15K | 3.14
G15I | 2.37
G15F | 2.27
G15V | 2.06
A3I | 2.71
A3W | 2.51
A3H | 2.44
A3M | 2.75
A3D | 3.7
A3P | 2.95
A3T | 3.24
A3S | 2.68
A3Y | 2.52
A3G | 3.13
A3V | 2.61
A3Q | 3.06

Variant | protein stability index
A3K | 3.12
A3L | 2.57
A3E | 3.77
A3N | 3.11
A3R | 2.85
A3F | 2.23
A3C | 2.09
E17Y | 2.19
E17F | 2.17
E17L | 2.04
E17W | 2.12
E17D | 2.88
E17P | 2.66
E17R | 2.67
E17C | 1.71
E17V | 2.25
E17Q | 1.96
E17H | 1.9
E17T | 1.75
E17A | 1.47
E17K | 2.08
E17S | 2.06
E17N | 2.57
E17I | 1.64
E17G | 2.3

Variant | protein stability index
E17M | 1.14
V18A | 3.33
S14Q | 2.81
S14R | 2.56
S14M | 2.49
S14G | 3.11
S14C | 1.21
S14L | 1.57
S14K | 3.32
S14I | 1.93
S14V | 1.43
S14D | 3.82
S14E | 3.67
S14F | 1.23
S14A | 2.86
S14P | 3.44
S14T | 2.98
S14H | 3.31
S14Y | 2.39
S14N | 2.66
S14W | 1.87
R1Q | 2.99
R1S | 2.9
R1A | 3.21
R1V | 2.02

Variant | protein stability index
R1L | 2.43
R1N | 3.23
R1D | 3.7
R1P | 3.19
R1K | 3.32
R1W | 2.53
R1C | 1.91
R1G | 2.95
R1M | 2.71
R1F | 2.01
R1T | 3.22
R1Y | 2.81
R1E | 3.5
R1I | 1.58
R1H | 3.44
F5W | 2.48
F5K | 3.47
F5Q | 3.8
F5V | 3.6
F5S | 3.77
F5P | 3.25
F5D | 3.77
F5E | 4.18
F5H | 3.77
F5C | 3.55

Variant | protein stability index
F5N | 3.38
F5A | 3.91
F5T | 3.59
F5Y | 3.16
F5R | 3.76
F5I | 2.94
F5M | 2.85
F5L | 3.93
F5G | 4.05
K6P | 2.72
K6W | 2.4
K6A | 2.71
K6N | 3.22
K6M | 2.36
K6G | 2.4
K6F | 1.79
K6H | 2.6
K6V | 3.03
K6T | 2.99
K6R | 2.29
K6I | 2.42
K6S | 2.82
K6Y | 2.87
K6Q | 2.44
K6L | 2.29

Variant | protein stability index
K6C | 2.79
K6D | 3.75
K6E | 3.24
A7L | 2.08
A7I | 2.66
A7T | 3.12
A7W | 1.71
A7P | 3.2
A7H | 2.75
A7D | 3.12
A7V | 2.91
A7Y | 2.18
A7N | 3.11
A7K | 3.67
A7R | 2.85
A7Q | 2.93
A7S | 3.26
A7E | 2.86
A7M | 2.46
A7G | 2.86
A7C | 2.35
A7F | 2.21
V12Q | 3.15
V12H | 3.52
V12A | 3.23

Variant | protein stability index
V12T | 2.68
V12P | 3.82
V12Y | 2.73
V12G | 3.17
V12W | 2.4
V12F | 2.39
V12K | 2.91
V12D | 4.03
V12L | 2.42
V12M | 3.26
V12C | 2.89
V12I | 2.85
V12R | 3.31
V12E | 3.49
V12S | 3.47
V12N | 3.93
R16W | 1.92
R16Q | 3.61
R16V | 1.91
R16C | 1.89
R16H | 2.98
R16K | 3.38
R16G | 2.99
R16Y | 1.54
R16E | 3.7

Variant | protein stability index
R16L | 2.42
R16P | 3.27
R16S | 3.21
R16F | 1.65
R16A | 2.71
R16I | 1.92
R16T | 2.99
R16M | 2.08
R16D | 3.69
R16N | 3.63
K9M | 2.31
K9A | 3.02
K9N | 3.16
K9V | 2.48
K9F | 1.7
K9D | 3.18
K9I | 1.57
K9L | 1.99
K9W | 1.87
K9C | 2.33
K9S | 3.16
K9E | 3.11
K9T | 3.04
K9P | 2.78
K9H | 2.93

Variant | protein stability index
K9Y | 1.05
K9G | 2.28
K9Q | 2.65
K9R | 2.31
K2Y | 2
K2L | 1.76
K2S | 3.02
K2C | 1.85
K2P | 2.75
K2V | 2.49
K2W | 1.94
K2G | 3.3
K2D | 3.43
K2A | 3.43
K2M | 2.33
K2I | 1.92
K2H | 2.46
K2F | 2.06
K2R | 2.78
K2Q | 3.23
K2T | 3.06
K2N | 3.24
K2E | 2.81
A10Y | 1.92
A10C | 2.12

Variant | protein stability index
A10W | 2.97
A10F | 1.53
A10R | 3.09
A10P | 3.73
A10T | 2.88
A10Q | 3.17
A10N | 3.16
A10L | 2.09
A10S | 2.86
A10D | 3.5
A10G | 2.86
A10H | 2.75
A10I | 2.09
A10M | 2.09
A10E | 2.97
A10V | 2.49
A10K | 2.47
L11Q | 3.66
L11P | 3.54
L11C | 3.09
L11Y | 2.29
L11K | 3.77
L11T | 3.76
L11G | 3.46
L11S | 3.69

Variant | protein stability index
L11F | 2.65
L11R | 2.95
L11I | 2.72
L11N | 4.1
L11A | 3.06
L11H | 3.36
L11D | 3.69
L11W | 2.55
L11E | 3.78
L11M | 2.84
L11V | 3.11
G8S | 2.7
G8K | 3.24
G8T | 2.78
G8W | 1.79
G8P | 2.65
G8E | 2.99
G8Q | 2.85
G8D | 3.31
G8A | 2.94
G8M | 2.59
G8H | 2.66
G8V | 2.16
G8N | 3.3
G8Y | 1.74

Variant | protein stability index
G8C | 2.14
G8I | 2.23
G8L | 1.92
G8R | 2.52
G8F | 1.93
I13V | 3.51
I13H | 3.13
I13N | 3.95
I13W | 2.8
I13Y | 2.77
I13A | 3.86
I13Q | 3.72
I13K | 3.79
I13D | 4.17
I13R | 3.89
I13S | 3.8
I13E | 4.28
I13L | 3.55
I13M | 3.26
I13P | 3.48
I13C | 3.2
I13T | 3.21
I13F | 2.32
I13G | 4

Variants of: B2
Assay: as above
Conditions: c terminus: a fixed tail appended

Variant | protein stability index
L24Y | 1.59
L24M | 1.74
L24S | 2.31
L24Q | 2.45
L24V | 1.91
L24N | 2.28
L24T | 1.35
L24P | 2.08
L24W | 1.73
L24R | 2.09
